Measured values published in patent US20230057012A1, “TGFB INHIBITORS AND USE THEREOF” (Scholar Rock, Inc., priority 2020, published 2023).
Entries after “also recorded” stand apart in the source; their conditions may differ.

How the values were obtained:
[1] = biological target: T1, hGARP-proTGFβ1 (Homo sapiens, UniProt P01137); assay: Octet binding kinetics (BLI); details: Fab in solution, immobilized biotinylated antigen
T1 construct: biotin (the antigen complex is biotinylated); made in house
Method: (§1) The table below exemplifies binding kinetics of the listed antibodies (e.g., Fabs) obtained by OCTET®-based binding assays. The experiments were conducted with immobilized, biotinylated antigen and Fab fragments (e.g., test antibodies) in solution.
(§2) In some embodiments, the binding affinity of an antibody, or antigen-binding portion thereof, to an antigen (e.g., protein complex), such as presenting molecule-proTGFβ1 complexes, is determined using an Octet assay. In some embodiments, an Octet assay is an assay that determines one or more a kinetic parameters indicative of binding between an antibody and antigen. In some embodiments, an OCTET® system (FORTEBIO®, Menlo Park, Calif.) is used to determine the binding affinity of an antibody, or antigen-binding portion thereof, to presenting molecule-proTGFβ1 complexes. For example, binding affinities of antibodies may be determined using the FORTEBIO® Octet QKe dip and read label free assay system utilizing bio-layer interferometry. In some embodiments, antigens are immobilized to biosensors (e.g., streptavidin-coated biosensors) and the […] are presented in solution at high concentration (50 μg/mL) to measure binding interactions. In some embodiments, the binding affinity of an antibody, or antigen-binding portion thereof, to a presenting molecule-proTGFβ1 complex is determined using the protocol outlined in Table 14.
(§3) The protocol used to measure the affinity of the antibodies to the complexes provided herein is summarized in Table 14 below, and a summary list of affinity profiles of exemplary antibodies of the present disclosure is provided in Table 6 herein.

[2] = biological target: T2, hLTBP1-proTGFβ1 (Homo sapiens, UniProt P01137); assay: Octet binding kinetics (BLI); details: Fab in solution, immobilized biotinylated antigen
T2 construct: biotin (the antigen complex is biotinylated); made in house
Method: as §1, §2, §3

[3] = biological target: T3, hLTBP3-proTGFβ1 (Homo sapiens, UniProt P01137); assay: Octet binding kinetics (BLI); details: Fab in solution, immobilized biotinylated antigen
T3 construct: biotin (the antigen complex is biotinylated); made in house
Method: as §1, §2, §3

[4] = biological target: T1, hGARP-proTGFβ1; assay: Biacore SPR Fab binding kinetics
Method: (§4) Among these antibodies, Ab42, Ab46 and Ab50 were selected for further evaluation. Surface plasmon resonance (SPR) was used to measure binding kinetics using a BIACORE® system. Association and dissociation kinetics of Fab fragments of Ab42, Ab46, Ab50 and a reference antibody (shown as “Ref”), to antigen complexes were measured, and resulting equilibrium dissociation constants (KD) are provided below. Experiments were carried out with eight types of LLCs, namely, hLTBP1-proTGFβ1, mLTBP1-proTGFβ1, hLTBP3-proTGFβ1, mLTBP3-proTGFβ1, hGARP-proTGFβ1, mGARP-proTGFβ1, hLRRC33-proTGFβ1 and mLRRC33-proTGFβ1.
(§5) In vitro binding kinetics (on/off rates) were measured in Biacore-based assays and affinities were determined against all four known LLCs using both human and murine counterparts for each. Based on the association rate and dissociation rate, KD was calculated for each. In addition, relative affinities, as compared to the reference antibody as a benchmark, were calculated and expressed as “fold difference” relative to the reference antibody.
(§6) A BIACORE® system was employed to determine the monovalent binding affinity and the kinetic parameters for antigen binding of test antibodies. The binding kinetics were evaluated by surface plasmon resonance using Biacore 8K (GE Healthcare). A Biotin CAP sensor chip was used to capture the biotinylated antigens. Fabs at various concentrations (0 nM, 0.62 nM, 1.25 nM, 2.5 nM, 5 nM and 10 nM) were injected over the captured antigens. Multi-cycle kinetics was employed where each analyte concentration was injected in a separate cycle and the sensor chip surface was regenerated after each cycle. All the assays were carried out in freshly prepared 1× HBS-EP+ buffer (10 mM HEPES, 150 mM NaCl, 3 mM EDTA, 0.05% Tween20, pH 7.4). Data for all the analyte concentrations for each interaction were fit globally to a 1:1 binding model to obtain the kinetic parameters. The Sensorgram for 0 nM analyte concentration was used as reference.
(§7) The binding kinetics of antibody interactions with each of the antigen complexes, human LTBP1-ProTGFβ1, human LTBP3-ProTGFβ1, human GARP-ProTGFβ1, and human LRRC33-ProTGFβ1, were evaluated by surface plasmon resonance. Binding kinetics was evaluated by surface plasmon resonance using a BIACORE® 8K (GE) instrument. Biotinylated antigens were captured on a Biotin CAP chip and the Fab fragments of the antibodies were used as analytes. Sensorgrams for Fab binding at variable concentrations (0.6-10 nM) were globally fit to obtain the kinetic parameters.
(§8) Binding kinetics for the Fabs were evaluated against each of the four human antigens, LTBP1-ProTGFβ1, LTBP3-ProTGFβ1, GARP-ProTGFβ1, and LRRC33-ProTGFβ1. […] These experiments were repeated.

[5] = biological target: T4, hLRRC33-proTGFβ1 (Homo sapiens, UniProt P01137); assay: Biacore SPR Fab binding kinetics
T4 construct: biotin (the antigen complex is biotinylated); made in house
Method: as §4, §5, §6, §7, §8

[6] = biological target: T2, hLTBP1-proTGFβ1; assay: Biacore SPR Fab binding kinetics
Method: as §4, §5, §6, §7, §8

[7] = biological target: T3, hLTBP3-proTGFβ1; assay: Biacore SPR Fab binding kinetics
Method: as §4, §5, §6, §7, §8

[8] = biological target: T5, mGARP-proTGFβ1 (Homo sapiens, UniProt P01137); assay: Biacore SPR Fab binding kinetics; parameters: species or system mouse; details: Table 10
T5 construct: biotin (the antigen complex is biotinylated); made in house
Method: as §4, §5, §6

[9] = biological target: T6, mGARP-proTGFβ1; assay: Biacore SPR Fab binding kinetics; parameters: species or system mouse; details: Table 10
T6 construct: biotin (the antigen complex is biotinylated); made in house
Method: as §4, §5, §6

[10] = biological target: T7, mLRRC33-proTGFβ1 (Homo sapiens, UniProt P01137); assay: Biacore SPR Fab binding kinetics; parameters: species or system mouse; details: Table 12
T7 construct: biotin (the antigen complex is biotinylated); made in house
Method: as §4, §5, §6

[11] = biological target: T8, mLRRC33-proTGFβ1; assay: Biacore SPR Fab binding kinetics; parameters: species or system mouse; details: Table 12
T8 construct: biotin (the antigen complex is biotinylated); made in house
Method: as §4, §5, §6

[12] = biological target: T9, mLTBP1-proTGFβ1 (Homo sapiens, UniProt P01137); assay: Biacore SPR Fab binding kinetics; parameters: species or system mouse; details: Table 6
T9 construct: biotin (the antigen complex is biotinylated); made in house
Method: as §4, §5, §6

[13] = biological target: T10, mLTBP1-proTGFβ1; assay: Biacore SPR Fab binding kinetics; parameters: species or system mouse; details: Table 6
T10 construct: biotin (the antigen complex is biotinylated); made in house
Method: as §4, §5, §6

[14] = biological target: T11, mLTBP3-proTGFβ1 (Homo sapiens, UniProt P01137); assay: Biacore SPR Fab binding kinetics; parameters: species or system mouse; details: Table 8
T11 construct: biotin (the antigen complex is biotinylated); made in house
Method: as §4, §5, §6

[15] = biological target: T12, mLTBP3-proTGFβ1; assay: Biacore SPR Fab binding kinetics; parameters: species or system mouse; details: Table 8
T12 construct: biotin (the antigen complex is biotinylated); made in house
Method: as §4, §5, §6

[16] = system: LLCs; assay: ELISA binding to LLCs; details: hIgG4; FIGS. 3 and 4
[17] = system: CDHFD mice; assay: choline-deficient high fat diet (CDHFD) liver fibrosis model; assay type: in vivo
[18] = system: Wistar-Han rats on a CDHF diet; assay: CDHFD target engagement study in rats; assay type: in vivo
Method: A similar study was run in 10-12 week old male Wistar-Han rats as follows: rats were fed on a CDHF diet for 12 weeks and then randomized. A first dose of the negative control (“HuNEG” IgG4, 30 mg/kg, n=6) or Ab46 (3, 10, and 30 mg/kg, n=8) was given on Day 1, and a second dose was given on Day 3. Treatment with a TGF-β type 1 receptor (ALK5) kinase inhibitor (ALK5i, 10 mg/kg) was used as a positive control. Tissue collection (left lateral lobe) was performed on Day 5. All rats had detectable serum antibody exposure. […] The study was repeated with a broader dose range: rats were fed on a CDHF diet for 12 weeks and then randomized. A single dose of 0.3 mg/kg, 1 mg/kg, 3 mg/kg, 10 mg/kg, or 30 mg/kg of Ab46 was given on Day 1, and tissue collection was performed after 48 hours.

T3 sequence (P01137 30-390): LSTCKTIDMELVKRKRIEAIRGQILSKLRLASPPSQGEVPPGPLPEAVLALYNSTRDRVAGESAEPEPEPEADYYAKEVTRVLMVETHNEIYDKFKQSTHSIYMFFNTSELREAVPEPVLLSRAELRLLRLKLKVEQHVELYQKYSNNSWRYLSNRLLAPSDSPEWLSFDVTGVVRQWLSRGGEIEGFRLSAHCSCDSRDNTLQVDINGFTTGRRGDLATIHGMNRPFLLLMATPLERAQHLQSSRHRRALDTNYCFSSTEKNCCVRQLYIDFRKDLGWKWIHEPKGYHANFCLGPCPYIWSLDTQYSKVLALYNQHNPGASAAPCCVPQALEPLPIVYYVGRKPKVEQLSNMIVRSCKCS
T3 sequence (Q9NS15 44-1303 partner): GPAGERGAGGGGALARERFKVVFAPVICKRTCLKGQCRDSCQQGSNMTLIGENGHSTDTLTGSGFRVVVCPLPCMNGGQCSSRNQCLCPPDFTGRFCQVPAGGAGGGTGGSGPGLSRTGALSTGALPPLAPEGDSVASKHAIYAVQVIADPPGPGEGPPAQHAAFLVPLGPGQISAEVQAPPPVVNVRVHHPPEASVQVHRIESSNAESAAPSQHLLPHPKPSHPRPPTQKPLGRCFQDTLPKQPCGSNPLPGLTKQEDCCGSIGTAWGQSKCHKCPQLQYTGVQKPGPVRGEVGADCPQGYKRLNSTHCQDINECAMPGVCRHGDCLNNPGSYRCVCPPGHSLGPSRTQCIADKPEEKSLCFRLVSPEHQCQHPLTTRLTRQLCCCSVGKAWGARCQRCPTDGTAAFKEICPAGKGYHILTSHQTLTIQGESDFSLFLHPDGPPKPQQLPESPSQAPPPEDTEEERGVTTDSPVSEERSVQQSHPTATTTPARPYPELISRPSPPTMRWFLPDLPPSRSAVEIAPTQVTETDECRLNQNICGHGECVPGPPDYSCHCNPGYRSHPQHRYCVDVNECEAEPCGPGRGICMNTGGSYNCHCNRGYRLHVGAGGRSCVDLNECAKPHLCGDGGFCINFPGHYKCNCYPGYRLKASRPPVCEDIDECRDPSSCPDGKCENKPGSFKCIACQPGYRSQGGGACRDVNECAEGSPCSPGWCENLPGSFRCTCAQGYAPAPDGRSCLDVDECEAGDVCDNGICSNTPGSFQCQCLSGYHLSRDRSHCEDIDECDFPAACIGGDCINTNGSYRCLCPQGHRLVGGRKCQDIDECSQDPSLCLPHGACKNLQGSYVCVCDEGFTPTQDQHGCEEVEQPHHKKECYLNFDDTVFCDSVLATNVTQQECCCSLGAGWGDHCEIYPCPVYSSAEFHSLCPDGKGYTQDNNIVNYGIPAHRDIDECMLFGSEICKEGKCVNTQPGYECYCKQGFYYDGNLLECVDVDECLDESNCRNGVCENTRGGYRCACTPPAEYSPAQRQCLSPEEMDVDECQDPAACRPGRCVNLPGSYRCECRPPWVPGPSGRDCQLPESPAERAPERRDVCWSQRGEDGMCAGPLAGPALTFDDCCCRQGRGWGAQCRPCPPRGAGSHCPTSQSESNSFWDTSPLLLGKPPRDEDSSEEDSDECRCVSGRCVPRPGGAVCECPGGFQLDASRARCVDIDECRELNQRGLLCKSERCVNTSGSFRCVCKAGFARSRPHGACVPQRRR
T1 sequence (P01137 30-390): as the sequence (P01137 30-390) above
T1 sequence (Q14392 18-627 partner limits assumed): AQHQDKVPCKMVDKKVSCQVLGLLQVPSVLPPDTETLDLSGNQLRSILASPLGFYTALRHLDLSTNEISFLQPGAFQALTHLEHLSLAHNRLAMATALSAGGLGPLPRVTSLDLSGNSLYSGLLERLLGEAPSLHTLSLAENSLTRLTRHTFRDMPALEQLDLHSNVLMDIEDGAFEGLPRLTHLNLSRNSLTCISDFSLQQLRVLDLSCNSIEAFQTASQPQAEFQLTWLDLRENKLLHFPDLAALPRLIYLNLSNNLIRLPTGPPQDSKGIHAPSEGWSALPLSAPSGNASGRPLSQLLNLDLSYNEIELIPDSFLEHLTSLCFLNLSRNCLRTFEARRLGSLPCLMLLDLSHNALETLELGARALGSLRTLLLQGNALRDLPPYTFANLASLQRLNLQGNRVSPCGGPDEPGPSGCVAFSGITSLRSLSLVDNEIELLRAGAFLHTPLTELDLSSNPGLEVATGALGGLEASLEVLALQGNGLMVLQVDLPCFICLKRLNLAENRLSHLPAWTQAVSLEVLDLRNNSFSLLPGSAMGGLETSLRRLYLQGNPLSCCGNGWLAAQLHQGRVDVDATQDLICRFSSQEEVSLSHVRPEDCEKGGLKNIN
T2 sequence (P01137 30-390): as the sequence (P01137 30-390) above
T2 sequence (Q14766 347-1721 partner limits assumed): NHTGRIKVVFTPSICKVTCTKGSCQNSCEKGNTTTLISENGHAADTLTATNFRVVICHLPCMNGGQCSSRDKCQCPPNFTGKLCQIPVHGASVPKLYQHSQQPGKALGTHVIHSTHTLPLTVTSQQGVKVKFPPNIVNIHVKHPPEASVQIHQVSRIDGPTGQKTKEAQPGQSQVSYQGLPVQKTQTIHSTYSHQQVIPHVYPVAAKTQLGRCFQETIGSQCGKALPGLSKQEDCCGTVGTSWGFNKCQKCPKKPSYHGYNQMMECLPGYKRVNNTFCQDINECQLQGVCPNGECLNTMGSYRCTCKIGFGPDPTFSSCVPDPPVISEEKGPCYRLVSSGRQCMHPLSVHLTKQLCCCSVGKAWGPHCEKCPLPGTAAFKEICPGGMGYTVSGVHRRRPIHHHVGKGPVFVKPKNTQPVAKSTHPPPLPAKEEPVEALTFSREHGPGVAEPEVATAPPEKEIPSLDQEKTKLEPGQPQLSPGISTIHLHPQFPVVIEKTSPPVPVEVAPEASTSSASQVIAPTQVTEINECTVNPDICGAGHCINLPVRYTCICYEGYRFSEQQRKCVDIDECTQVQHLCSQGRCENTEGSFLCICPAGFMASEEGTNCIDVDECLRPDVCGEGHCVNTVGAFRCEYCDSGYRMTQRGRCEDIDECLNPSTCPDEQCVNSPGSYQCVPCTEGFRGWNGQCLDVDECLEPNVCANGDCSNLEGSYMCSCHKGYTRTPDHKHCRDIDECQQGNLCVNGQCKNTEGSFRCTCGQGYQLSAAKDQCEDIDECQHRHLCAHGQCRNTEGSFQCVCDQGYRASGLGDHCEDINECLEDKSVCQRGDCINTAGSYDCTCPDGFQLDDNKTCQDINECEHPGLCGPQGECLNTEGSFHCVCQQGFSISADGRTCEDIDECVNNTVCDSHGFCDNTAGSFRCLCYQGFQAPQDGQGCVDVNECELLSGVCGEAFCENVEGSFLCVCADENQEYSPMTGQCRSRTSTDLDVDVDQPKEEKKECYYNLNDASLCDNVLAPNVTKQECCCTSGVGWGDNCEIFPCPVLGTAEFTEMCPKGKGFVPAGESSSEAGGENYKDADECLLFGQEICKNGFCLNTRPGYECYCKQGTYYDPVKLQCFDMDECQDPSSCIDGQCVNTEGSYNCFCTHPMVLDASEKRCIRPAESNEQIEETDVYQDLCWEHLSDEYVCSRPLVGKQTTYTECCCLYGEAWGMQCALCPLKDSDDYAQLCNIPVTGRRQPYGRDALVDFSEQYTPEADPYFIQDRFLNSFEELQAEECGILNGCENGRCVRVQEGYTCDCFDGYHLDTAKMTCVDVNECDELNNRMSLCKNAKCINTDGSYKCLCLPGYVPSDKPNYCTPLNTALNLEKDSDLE
T4 sequence (P01137 30-390): as the sequence (P01137 30-390) above
T4 sequence (Q86YC3 with tags, fused parts or gaps partner limits assumed): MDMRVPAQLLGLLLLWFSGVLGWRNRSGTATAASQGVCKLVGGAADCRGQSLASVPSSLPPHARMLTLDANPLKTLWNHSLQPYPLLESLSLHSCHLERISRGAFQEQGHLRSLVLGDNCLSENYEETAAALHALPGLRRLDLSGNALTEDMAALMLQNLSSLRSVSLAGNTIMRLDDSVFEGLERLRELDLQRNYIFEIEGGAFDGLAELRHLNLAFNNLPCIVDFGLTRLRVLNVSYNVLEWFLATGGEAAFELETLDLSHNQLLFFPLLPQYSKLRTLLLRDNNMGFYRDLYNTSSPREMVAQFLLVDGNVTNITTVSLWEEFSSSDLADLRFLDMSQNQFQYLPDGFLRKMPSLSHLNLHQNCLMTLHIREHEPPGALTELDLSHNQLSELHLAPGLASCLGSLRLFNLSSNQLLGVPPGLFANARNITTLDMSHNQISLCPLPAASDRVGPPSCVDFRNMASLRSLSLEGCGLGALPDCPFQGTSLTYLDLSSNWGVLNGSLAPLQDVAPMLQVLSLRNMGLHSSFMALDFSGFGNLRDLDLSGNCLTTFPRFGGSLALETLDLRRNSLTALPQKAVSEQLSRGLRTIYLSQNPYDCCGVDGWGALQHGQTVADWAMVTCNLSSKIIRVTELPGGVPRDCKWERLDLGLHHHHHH
T6 sequence (P01137 30-390): as the sequence (P01137 30-390) above
T6 sequence (G3XA59 18-628 partner limits assumed): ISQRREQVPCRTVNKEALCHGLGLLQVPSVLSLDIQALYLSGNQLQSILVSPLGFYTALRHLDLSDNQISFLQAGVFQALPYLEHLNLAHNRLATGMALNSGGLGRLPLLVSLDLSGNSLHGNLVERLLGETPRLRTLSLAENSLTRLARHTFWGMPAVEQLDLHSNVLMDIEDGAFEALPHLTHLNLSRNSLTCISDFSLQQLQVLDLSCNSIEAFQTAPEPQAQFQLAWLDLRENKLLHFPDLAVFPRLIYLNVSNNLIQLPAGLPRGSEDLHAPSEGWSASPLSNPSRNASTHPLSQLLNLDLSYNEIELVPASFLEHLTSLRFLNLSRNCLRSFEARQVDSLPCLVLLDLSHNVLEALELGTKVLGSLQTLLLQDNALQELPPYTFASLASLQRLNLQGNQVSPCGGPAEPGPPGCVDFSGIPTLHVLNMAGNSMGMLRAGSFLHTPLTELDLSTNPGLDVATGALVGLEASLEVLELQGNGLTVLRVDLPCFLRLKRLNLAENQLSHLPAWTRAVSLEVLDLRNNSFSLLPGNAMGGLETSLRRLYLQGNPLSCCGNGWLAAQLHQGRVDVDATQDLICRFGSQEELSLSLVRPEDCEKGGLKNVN

B1: Ab46: activation inhibitor of TGFβ1; H-CDR3 VSGHWDYD, L-CDR2 AASGLES, L-CDR3 QQTYGVPLT (Table 3) (antibody, V domains shown)
VH: EVQLLESGGGLVQPGGSLRLSCAASGFTFADYAMTWVRQAPGKGLEWVSAISGSGAATYFADSVKGRFTISRDNSKNTLYLQMNSLRAEDTAVYYCARVSSGHWDYDYWGQGTLVTVSS
VL: DIQLTQSPSSLSASVGDRVTITCRASQSISSYLNWYQQKPGKAPKLLIYAASGLESGVPSRFSGSGSGTDFTLTISSLQPEDFATYYCQQTYGVPLTFGGGTKVEIK
- KOFF [1]: 0.00029 s⁻¹
- KON [1]: 7.03E+05 M^−1/s^−1
- KOFF [2]: 4.98e-05 s⁻¹
- KON [2]: 7.03E+05 M^−1/s^−1
- KOFF [3]: 0.000438 s⁻¹
- KON [3]: 6.19E+05 M^−1/s^−1
- KOFF ([4]; Biacore 8K, Table 22): 0.000359 s⁻¹
- kon ([4]; Biacore 8K, Table 22): 1.89e+06 M⁻¹ s⁻¹
- KOFF ([4]; Biacore, Table 9): 0.000222 s⁻¹
- KON ([4]; Biacore, Table 9): 9.65E+05 M^−1/s^−1
- KOFF ([5]; Biacore 8K, Table 22): 0.000162 s⁻¹
- kon ([5]; Biacore 8K, Table 22): 1.36e+06 M⁻¹ s⁻¹
- KOFF ([5]; Biacore, Table 11): 0.000128 s⁻¹
- KON ([5]; Biacore, Table 11): 1.52E+06 M^−1/s^−1
- KOFF ([6]; Biacore 8K, Table 22): 8.52e-05 s⁻¹
- kon ([6]; Biacore 8K, Table 22): 2.44e+06 M⁻¹ s⁻¹
- KOFF ([6]; Biacore, Table 5): 8.81e-05 s⁻¹
- KON ([6]; Biacore, Table 5): 1.75E+06 M^−1/s^−1
- time bound to the antigen relative to the reference antibody ([6]; SPR, FIG. 2, antigen not given): more than 50 times
- t1/2 (dissociation) ([6]; SPR, FIG. 2, antigen not given, values fit the KOFF of Table 5): over 130 minutes
- KOFF ([7]; Biacore 8K, Table 22): 0.000195 s⁻¹
- kon ([7]; Biacore 8K, Table 22): 1.78e+06 M⁻¹ s⁻¹
- KOFF ([7]; Biacore, Table 7): 0.000128 s⁻¹
- KON ([7]; Biacore, Table 7): 1.00E+06 M^−1/s^−1
- KON [8]: 1.02E+06 M^−1/s^−1
- KOFF [9]: 0.000278 s⁻¹
- KON [10]: 1.26E+06 M^−1/s^−1
- KOFF [11]: 0.000112 s⁻¹
- KON [12]: 1.85E+06 M^−1/s^−1
- KOFF [13]: 9.87e-05 s⁻¹
- KON [14]: 1.20E+06 M^−1/s^−1
- KOFF [15]: 0.000115 s⁻¹
- binding by ELISA [16]: Specific and selective binding
- % positive pSMAD2 nuclei in liver ([17]; 30 mg/kg on Day 1 and Day 3 after ten weeks of CDHFD): Significant reduction in % positive pSMAD2 nuclei
- ratio of phosphorylated versus total SMAD2/3 in the medial lobe (ELISA) ([17]; 3, 10 and 30 mg/kg on Day 1 and Day 3 after ten weeks of CDHFD, tissue Day 5, p<0.05): Significant reduction in pSMAD2/3
- reduction in % pSMAD2 nuclei compared to comparable doses of Ab2 ([17]; data not shown): greater
- % pSMAD2-positive nuclei, left lateral lobe ([18]; 3, 10 and 30 mg/kg on Day 1 and Day 3 after 12 weeks of CDHFD, tissue Day 5): suppression of SMAD2 phosphorylation; also recorded: able to suppress phosphorylation of SMAD2
- reduction in percentage of pSMAD2-positive nuclei compared with Ab2 ([18]; rat, in vivo): greater
- % pSMAD2-positive nuclei ([18]; single dose 10 mg/kg and 30 mg/kg on Day 1, tissue after 48 hours): appeared to fully suppress SMAD2 phosphorylation; also recorded: significant reduction of pSMAD2-positive nuclei
